Measurements taken from paper PMC10572780, “MucR from Sinorhizobium meliloti: New Insights into Its DNA Targets and Its Ability to Oligomerize” (International Journal of Molecular Sciences, 2023).

Key:
[1] = target: T1, rMucR (recombinant MucR) (Sinorhizobium meliloti 1021, UniProt P55323 1-143); assay: EMSA; 20 pmol rMucR, 10 pmol DNA, no competitor; 25 mM HEPES pH 7.9, 50 mM KCl, 6.25 mM MgCl2, 5% glycerol; 10 min on ice (plus 10 min on ice after competitor); 5% polyacrylamide gel, 0.5x TBE, room temperature, 200 V, 70 min; conditions: protein: recombinant; tags: none (pET22b+, NdeI/XhoI, native stop codon in reverse primer); chain copies: 10; label: FAM
T1 sequence: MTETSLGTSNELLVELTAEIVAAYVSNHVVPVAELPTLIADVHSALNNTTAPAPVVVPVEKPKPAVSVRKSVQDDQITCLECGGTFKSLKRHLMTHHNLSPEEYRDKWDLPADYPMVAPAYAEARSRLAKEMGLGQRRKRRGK

[2] = target: T1, rMucR (recombinant MucR); assay: EMSA; 10 pmol DNA; 25 mM HEPES pH 7.9, 50 mM KCl, 6.25 mM MgCl2, 5% glycerol; 10 min on ice (plus 10 min on ice after competitor); 5% polyacrylamide gel, 0.5x TBE, room temperature, 200 V, 70 min; conditions: protein: recombinant; tags: none (pET22b+, NdeI/XhoI, native stop codon in reverse primer); chain copies: 10
[3] = target: the molecule itself; assay: SEC-MALS; samples at 1 mg/mL on Superdex 200 in the buffer of the final purification step, 0.5 mL/min; MiniDAWN Treos; higher-order oligomer, no monomer or lower-order oligomers seen
[4] = target: T1, rMucR (recombinant MucR); assay: EMSA; minimal length with detectable binding; 25 mM HEPES pH 7.9, 50 mM KCl, 6.25 mM MgCl2, 5% glycerol; 10 min on ice (plus 10 min on ice after competitor); 5% polyacrylamide gel, 0.5x TBE, room temperature, 200 V, 70 min; conditions: protein: recombinant; tags: none (pET22b+, NdeI/XhoI, native stop codon in reverse primer); chain copies: 10
[5] = target: T1, rMucR (recombinant MucR); assay: competition; vs FAM-rem site3; 5-, 10-, 20-fold excess; does not effectively compete; 25 mM HEPES pH 7.9, 50 mM KCl, 6.25 mM MgCl2, 5% glycerol; 10 min on ice (plus 10 min on ice after competitor); 5% polyacrylamide gel, 0.5x TBE, room temperature, 200 V, 70 min; conditions: protein: recombinant; tags: none (pET22b+, NdeI/XhoI, native stop codon in reverse primer); chain copies: 10
[6] = target: T2, native MucR (Sinorhizobium meliloti 1021, UniProt P55323 2-143); assay: EMSA; 25 mM HEPES pH 7.9, 50 mM KCl, 6.25 mM MgCl2, 5% glycerol; 10 min on ice (plus 10 min on ice after competitor); 5% polyacrylamide gel, 0.5x TBE, room temperature, 200 V, 70 min; conditions: protein: native; tags: none
T2 sequence: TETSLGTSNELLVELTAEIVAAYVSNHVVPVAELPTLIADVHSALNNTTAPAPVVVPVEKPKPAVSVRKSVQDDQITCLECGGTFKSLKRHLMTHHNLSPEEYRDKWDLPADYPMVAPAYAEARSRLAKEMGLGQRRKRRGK

B1: FAM-labeled rem site3 (dsDNA)
DNA 1: CACGCAATTCTTAATCAACTATTAAAATCC
DNA 2: GGATTTTAATAGTTGATTAAGAATTGCGTG
- binding result [1]: binds

B2: rem site1 (dsDNA)
DNA 1: ATCACCTACTAGATATAGGCCCAAATCGGC
DNA 2: GCCGATTTGGGCCTATATCTAGTAGGTGAT
- binding result [2]: binds

B3: MucR purified from S. meliloti (natural protein, Sinorhizobium meliloti 1021, UniProt P55323 2-143, looked up)
chain: T2 sequence
notes: MucR from Sinorhizobium meliloti 1021, naturally expressed; 9 to 12 protomers not excluded; also called native MucR; naturally expressed MucR; source: endogenous, purified from S. meliloti 1021 (cation exchange chromatography, size exclusion chromatography); copies: 10
- stoichiometry N [3]: 10

B4: rem site3 18 bp (dsDNA)
DNA 1: ATTCTTAATCAACTATTA
DNA 2: TAATAGTTGATTAAGAAT
- binding result [4]: binds

B5: rem site2 (dsDNA)
DNA 1: CATCATGTTAGTGGTAAGGTTAACGATCAC
DNA 2: GTGATCGTTAACCTTACCACTAACATGATG
- binding result [2]: binds

B6: rem site3 mut2 (dsDNA)
DNA 1: CGCGCGGCCCCCGGCCGGCCGCCGGGGCCC
DNA 2: GGGCCCCGGCGGCCGGCCGGGGGCCGCGCG
- binding result [5]: no binding

B7: ndvA upstream region oligonucleotide (dsDNA)
DNA 1: GATAATTCTTCATATCACGCCCGGTCTTGCAGGAAACCTGCAAAAACTCGGAGTCGAGGCATCAAGATAGCTAACGATGAATCAT
DNA 2: ATGATTCATCGTTAGCTATCTTGATGCCTCGACTCCGAGTTTTTGCAGGTTTCCTGCAAGACCGGGCGTGATATGAAGAATTATC
- binding result [6]: binds

B8: rem site3 (dsDNA)
DNA 1: B1 DNA 1
DNA 2: B1 DNA 2
- binding result [2]: binds

B9: recombinant S. meliloti MucR (natural protein, Sinorhizobium meliloti 1021, UniProt P55323 1-143, looked up)
chain: T1 sequence
notes: Expressed with 100 uM zinc sulfate; Oligomer by SEC-MALS corresponds to a decamer (9 to 12 protomers not excluded); also called rMucR; recombinant MucR; source: E. coli BL21(DE3), pET22b+, purified (cation exchange chromatography, size exclusion chromatography); copies: 10
- stoichiometry N [3]: 10
